In US5721133:

Legend:
[1] = target: hybrid regulatory protein encoded by plasmid pHP236 (GAL4 residues 1-147, functional HIV-1 protease linker, GAL4 residues 768-881) (yeast S. cerevisiae; HIV-1 (λHXB-2 subclone)) (UniProt P04585)
[2] = target: hybrid regulatory protein encoded by plasmid p1009 (GAL4 residues 1-147, functional wild-type Coxsackievirus 3C protease linker, GAL4 residues 768-881) (yeast S. cerevisiae; Coxsackievirus (CVB3)) (UniProt P03313)

Substance	β-Galactosidase Activity (MUG units), GAL1-lacZ reporter in yeast GGY1::171 [1] [MUG units]	β-Galactosidase Activity (MUG units), GAL1-lacZ reporter in yeast GGY1::171 [2] [MUG units]
hybrid regulatory protein encoded by plasmid pHP236 (GAL4 residues 1-147, functional HIV-1 protease linker, GAL4 residues 768-881) (from UniProt P04585) (enzyme)	68	–
hybrid regulatory protein encoded by plasmid p1009 (GAL4 residues 1-147, functional wild-type Coxsackievirus 3C protease linker, GAL4 residues 768-881) (from UniProt P03313) (enzyme)	–	14
